{
  "source": "patent US20220289859A1",
  "target": "FcγRIIIa (UniProt P08637)",
  "sequence (P08637 17-208 limits assumed)": "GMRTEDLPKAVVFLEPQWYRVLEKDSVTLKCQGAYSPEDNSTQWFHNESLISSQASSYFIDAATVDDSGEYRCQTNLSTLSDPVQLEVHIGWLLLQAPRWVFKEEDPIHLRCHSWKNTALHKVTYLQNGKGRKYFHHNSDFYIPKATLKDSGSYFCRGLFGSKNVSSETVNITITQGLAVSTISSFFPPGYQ",
  "experiment": "SPR as in Example 4; glyco-enriched samples of belantamab",
  "data": [
    {"substance": "belantamab deglycosylated with PNGaseF (antibody)", "values": [
      {"measurement": "Specific FcγRIIIa binding activity", "value": 8, "unit": "%"}
    ]}
  ]
}
